Laboratory results published in US11155586B2, “Cystine knot scaffold platform” (Genentech, Inc., priority 2015, dated 2021).
Positions of bridges follow the written chain, without caps; N, C: chain ends. Residues, ends and D or L forms follow the SMILES beside them.

Target: T1, hVEGF(8-109) (Homo sapiens, UniProt P15692)
T1 construct: hVEGF(8-109) or BSA were coated on 384-well MAXISORP™ immunoplates
T1 sequence (P15692 214-315): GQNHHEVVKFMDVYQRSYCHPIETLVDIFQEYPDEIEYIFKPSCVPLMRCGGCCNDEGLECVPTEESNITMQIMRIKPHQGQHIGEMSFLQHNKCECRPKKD
Experiment: Spot phage ELISA
Assay type: binding
Protocol: After four rounds of binding selection, individual phage clones were picked and inoculated into 450 μl 2YT media containing 50 µg/ml Carbenecillin and M13-KO7 helper phage in 96-well blocks, which were grown at 37° C. overnight. The supernatant was analyzed with spot phage ELISA as follows: hVEGF(8-109) or BSA were coated on 384-well MAXISORP™ immunoplates and phage supernatant diluted (1:3) with PBT buffer was added to the wells. The plates were washed and bound phage was detected with anti-M13-HRP followed by TMB substrate. In these assays, phage binding to BSA alone was tested in parallel to assess background binding. Clones whose binding signals for hVEGF-A (8-109) were more than 3 times higher than to BSA (background) were considered positive. Positive clones were subjected to DNA sequence analysis.

[1] = loop 2 variants based on VEGF_CKP9.63 framework, Table 27

Molecule	S/N (signal to noise ratio as compared to BSA control) (Table 27)	ELISA [1]	also measured
CC[C@H](C)[C@@H]1NC(=O)[C@H](Cc2c[nH]c3ccccc23)NC(=O)[C@H](Cc2c[nH]cn2)NC(=O)[C@@H]2CCCN2C(=O)[C@H](CCCCN)NC(=O)[C@H](Cc2c[nH]c3ccccc23)NC(=O)[C@@H]2CCCN2C(=O)[C@H]([C@@H](C)O)NC(=O)[C@H](C(C)C)NC(=O)[C@@H](NC(=O)CN)CSSC[C@@H]2NC(=O)CNC(=O)[C@H](C)NC(=O)[C@H](CC(C)C)NC(=O)[C@@H]3CSSC[C@@H](C(=O)NCC(=O)O)NC(=O)[C@H](Cc4ccccc4)NC(=O)CNC(=O)[C@H](CC(N)=O)NC(=O)[C@@H]4CCCN4C(=O)CNC(=O)[C@H](CSSC[C@H](NC(=O)[C@H](CC(N)=O)NC1=O)C(=O)N[C@@H](CCCCN)C(=O)N[C@@H](CCC(N)=O)C(=O)N[C@@H](CC(=O)O)C(=O)N[C@@H](CO)C(=O)N[C@@H](CC(=O)O)C(=O)N3)NC(=O)[C@H](C(C)C)NC2=O [VEGF_CKP13] (H-GCVTPWKPHWINCKQDSDCLAGCVCGPNGFCG-OH; disulfide 2-23, 13-25, 19-31; N-terminus and C-terminus assumed)	–	–	S/N (signal to noise ratio as compared to BSA control) (Table 19): 56.3; ELISA (spot phage ELISA signal, EETI-II-based binders against hVEGF-A, Table 19): 3.5
GCDVMQPYWGCGVDMTCLAGCVCHWYNSCG [VEGF_CKP9.63.15]	21.4	1.5	–
GCDVMQPYWGCGVDLSCLAGCVCHWYNSCG [VEGF_CKP9.63.3]	20.7	1.7	–
CC[C@H](C)[C@@H]1NC(=O)[C@H](CCC(N)=O)NC(=O)[C@@H](NC(=O)CN)CSSC[C@@H](C(=O)N[C@H](C(=O)N[C@H]2CSSC[C@@H](C(=O)NCC(=O)O)NC(=O)[C@H](CO)NC(=O)[C@H](CC(N)=O)NC(=O)[C@H](Cc3ccc(O)cc3)NC(=O)[C@H](Cc3ccccc3)NC(=O)[C@H](Cc3c[nH]cn3)NC2=O)C(C)C)NC(=O)CNC(=O)[C@H](C)NC(=O)[C@H](CC(C)C)NC(=O)[C@@H]2CSSC[C@H](NC(=O)CNC(=O)[C@H](Cc3c[nH]c4ccccc34)NC(=O)[C@H](Cc3ccccc3)NC(=O)[C@@H]3CCCN3C(=O)[C@H](CCC(N)=O)NC(=O)[C@H](CO)NC1=O)C(=O)N[C@@H](CCCCN)C(=O)N[C@@H](CCC(N)=O)C(=O)N[C@@H](CC(=O)O)C(=O)N[C@@H](CO)C(=O)N[C@@H](CC(=O)O)C(=O)N2 [VEGF_CKP9.3] (H-GCQISQPFWGCKQDSDCLAGCVCHFYNSCG-OH; disulfide 2-21, 11-17, 23-29 (inferred); N-terminus and C-terminus assumed)	–	–	S/N (signal to noise ratio as compared to BSA control) (Table 24): 24.5; ELISA (VEGF_CKP9 Loop1/Loop5 affinity-matured variants, Table 24): 1.6
GCDVMQPYWGCGFDMDCLAGCVCHWYNSCG [VEGF_CKP9.63.65]	27.1	2.0	–
GCDVMQPYWGCDGDYQCLAGCVCHWYNSCG [VEGF_CKP9.63.18]	17.3	2.3	–
GCDVMQPYWGCGNDVSCLAGCVCHWYNSCG [VEGF_CKP9.63.24]	20.4	1.6	–
CC[C@H](C)[C@@H]1NC(=O)[C@H](CC(N)=O)NC(=O)[C@@H](NC(=O)CN)CSSC[C@@H](C(=O)N[C@H](C(=O)N[C@H]2CSSC[C@@H](C(=O)NCC(=O)O)NC(=O)[C@H](CO)NC(=O)[C@H](CCC(N)=O)NC(=O)[C@H](Cc3ccc(O)cc3)NC(=O)[C@H](Cc3ccc(O)cc3)NC(=O)[C@H](CCC(N)=O)NC2=O)C(C)C)NC(=O)CNC(=O)[C@H](C)NC(=O)[C@H](CC(C)C)NC(=O)[C@@H]2CSSC[C@H](NC(=O)CNC(=O)[C@H](Cc3c[nH]c4ccccc34)NC(=O)[C@H](Cc3ccccc3)NC(=O)[C@@H]3CCCN3C(=O)[C@H](CC(C)C)NC(=O)[C@H](CCSC)NC1=O)C(=O)NCC(=O)N1CCC[C@H]1C(=O)N[C@@H](CC(=O)O)C(=O)N[C@@H](CC(C)C)C(=O)N[C@@H](CCC(N)=O)C(=O)N2 [VEGF_CKP9.54.59] (H-GCNIMLPFWGCGPDLQCLAGCVCQYYQSCG-OH; disulfide 2-21, 11-17, 23-29; N-terminus and C-terminus assumed)	–	–	S/N (signal to noise ratio as compared to BSA control) (Table 26): 35.4; ELISA (loop 2 variants based on 9.54 framework, Table 26): 2.3
